The numbers were not newly measured in publication PMC3430373, which cites them from elsewhere.

The data set has as its target S10:NusB complex (Escherichia coli) (UniProt C4ZUH6). The data set can be described thus: NMR.

What is called Kd is a measure of binding affinity in units of concentration. Turning to NusG CTD (from UniProt P0AFG0), the Kd was 50 µM.
